From PMC11213948 (2024) come the findings set out here.

Sequences and labels used below:
B1: Xpress-His G5_(845–1508) [not stated] / G5_(1–1508)-FLAG [not stated] (parent complex)
chain 1: ARSLLPLSTSLDHRSKEELHQDCLVLATAKHSRELNEDVSADVEERFHLGLFTDRATLYRMIDIEGKGHLENGHPELFHQLMLWKGDLKGVLQTAAERGELTDNLVAMAPAAGYHVWLWAVEAFAKQLCFQDQYVKAASHLLSIHKVYEAVELLKSNHFYREAIAIAKARLRPEDPVLKDLYLSWGTVLERDGHYAVAAKCYLGATCAYDAAKVLAKKGDAASLRTAAELAAIVGEDELSASLALRCAQELLLANNWVGAQEALQLHESLQGQRLVFCLLELLSRHLEEKQLSEGKSSSSYHTWNTGTEGPFVERVTAVWKSIFSLDTPEQYQEAFQKLQNIKYPSATNNTPAKQLLLHICHDLTLAVLSQQMASWDEAVQALLRAVVRSYDSGSFTIMQEVYSAFLPDGCDHLRDKLGDHQSPATPAFKSLEAFFLYGRLYEFWWSLSRPCPNSSVWVRAGHRTLSVEPSQQLDTASTEETDPETSQPEPNRPSELDLRLTEEGERMLSTFKELFSEKHASLQNSQRTVAEVQETLAEMIRQHQKSQLCKSTANGPDKNEPEVEAEQPLCSSQSQCKEEKNEPLSLPELTKRLTEANQRMAKFPESIKAWPFPDVLECCLVLLLIRSHFPGCLAQEMQQQAQELLQKYGNTKTYRRHCQTFCM
chain 2: MGQEPRTLPPSPNWYCARCSDAVPGGLFGFAARTSVFLVRVGPGAGESPGTPPFRVIGELVGHTERVSGFTFSHHPGQYNLCATSSDDGTVKIWDVETKTVVTEHALHQHTISTLHWSPRVKDLIVSGDEKGVVFCYWFNRNDSQHLFIEPRTIFCLTCSPHHEDLVAIGYKDGIVVIIDISKKGEVIHRLRGHDDEIHSIAWCPLPGEDCLSINQEETSEEAEITNGNAVAQAPVTKGCYLATGSKDQTIRIWSCSRGRGVMILKLPFLKRRGGGIDPTVKERLWLTLHWPSNQPTQLVSSCFGGELLQWDLTQSWRRKYTLFSASSEGQNHSRIVFNLCPLQTEDDKQLLLSTSMDRDVKCWDIATLECSWTLPSLGGFAYSLAFSSVDIGSLAIGVGDGMIRVWNTLSIKNNYDVKNFWQGVKSKVTALCWHPTKEGCLAFGTDDGKVGLYDTYSNKPPQISSTYHKKTVYTLAWGPPVPPMSLGGEGDRPSLALYSCGGEGIVLQHNPWKLSGEAFDINKLIRDTNSIKYKLPVHTEISWKADGKIMALGNEDGSIEIFQIPNLKLICTIQQHHKLVNTISWHHEHGSQPELSYLMASGSNNAVIYVHNLKTVIESSPESPVTITEPYRTLSGHTAKITSVAWSPHHDGRLVSASYDGTAQVWDALREEPLCNFRGHRGRLLCVAWSPLDPDCIYSGADDFCVHKWLTSMQDHSRPPQGKKSIELEKKRLSQPKAKPKKKKKPTLRTPVKLESIDGNEEESMKENSGPVENGVSDQEGEEQAREPELPCGLAPAVSREPVICTPVSSGFEKSKVTINNKVILLKKEPPKEKPETLIKKRKARSLLPLSTSLDHRSKEELHQDCLVLATAKHSRELNEDVSADVEERFHLGLFTDRATLYRMIDIEGKGHLENGHPELFHQLMLWKGDLKGVLQTAAERGELTDNLVAMAPAAGYHVWLWAVEAFAKQLCFQDQYVKAASHLLSIHKVYEAVELLKSNHFYREAIAIAKARLRPEDPVLKDLYLSWGTVLERDGHYAVAAKCYLGATCAYDAAKVLAKKGDAASLRTAAELAAIVGEDELSASLALRCAQELLLANNWVGAQEALQLHESLQGQRLVFCLLELLSRHLEEKQLSEGKSSSSYHTWNTGTEGPFVERVTAVWKSIFSLDTPEQYQEAFQKLQNIKYPSATNNTPAKQLLLHICHDLTLAVLSQQMASWDEAVQALLRAVVRSYDSGSFTIMQEVYSAFLPDGCDHLRDKLGDHQSPATPAFKSLEAFFLYGRLYEFWWSLSRPCPNSSVWVRAGHRTLSVEPSQQLDTASTEETDPETSQPEPNRPSELDLRLTEEGERMLSTFKELFSEKHASLQNSQRTVAEVQETLAEMIRQHQKSQLCKSTANGPDKNEPEVEAEQPLCSSQSQCKEEKNEPLSLPELTKRLTEANQRMAKFPESIKAWPFPDVLECCLVLLLIRSHFPGCLAQEMQQQAQELLQKYGNTKTYRRHCQTFCM
B2: Xpress-His G5_(845–1287) [not stated] / G5_(1–1508)-FLAG [not stated] (parent complex)
chain 1: ARSLLPLSTSLDHRSKEELHQDCLVLATAKHSRELNEDVSADVEERFHLGLFTDRATLYRMIDIEGKGHLENGHPELFHQLMLWKGDLKGVLQTAAERGELTDNLVAMAPAAGYHVWLWAVEAFAKQLCFQDQYVKAASHLLSIHKVYEAVELLKSNHFYREAIAIAKARLRPEDPVLKDLYLSWGTVLERDGHYAVAAKCYLGATCAYDAAKVLAKKGDAASLRTAAELAAIVGEDELSASLALRCAQELLLANNWVGAQEALQLHESLQGQRLVFCLLELLSRHLEEKQLSEGKSSSSYHTWNTGTEGPFVERVTAVWKSIFSLDTPEQYQEAFQKLQNIKYPSATNNTPAKQLLLHICHDLTLAVLSQQMASWDEAVQALLRAVVRSYDSGSFTIMQEVYSAFLPDGCDHLRDKLGDHQSPATPAFKSLEAFFLYGRLYE
chain 2: B1 chain 2
B3: Xpress-His G5_(1–1287) [not stated] / G5_(1–1508)-FLAG [not stated] (parent complex)
chain 1: MGQEPRTLPPSPNWYCARCSDAVPGGLFGFAARTSVFLVRVGPGAGESPGTPPFRVIGELVGHTERVSGFTFSHHPGQYNLCATSSDDGTVKIWDVETKTVVTEHALHQHTISTLHWSPRVKDLIVSGDEKGVVFCYWFNRNDSQHLFIEPRTIFCLTCSPHHEDLVAIGYKDGIVVIIDISKKGEVIHRLRGHDDEIHSIAWCPLPGEDCLSINQEETSEEAEITNGNAVAQAPVTKGCYLATGSKDQTIRIWSCSRGRGVMILKLPFLKRRGGGIDPTVKERLWLTLHWPSNQPTQLVSSCFGGELLQWDLTQSWRRKYTLFSASSEGQNHSRIVFNLCPLQTEDDKQLLLSTSMDRDVKCWDIATLECSWTLPSLGGFAYSLAFSSVDIGSLAIGVGDGMIRVWNTLSIKNNYDVKNFWQGVKSKVTALCWHPTKEGCLAFGTDDGKVGLYDTYSNKPPQISSTYHKKTVYTLAWGPPVPPMSLGGEGDRPSLALYSCGGEGIVLQHNPWKLSGEAFDINKLIRDTNSIKYKLPVHTEISWKADGKIMALGNEDGSIEIFQIPNLKLICTIQQHHKLVNTISWHHEHGSQPELSYLMASGSNNAVIYVHNLKTVIESSPESPVTITEPYRTLSGHTAKITSVAWSPHHDGRLVSASYDGTAQVWDALREEPLCNFRGHRGRLLCVAWSPLDPDCIYSGADDFCVHKWLTSMQDHSRPPQGKKSIELEKKRLSQPKAKPKKKKKPTLRTPVKLESIDGNEEESMKENSGPVENGVSDQEGEEQAREPELPCGLAPAVSREPVICTPVSSGFEKSKVTINNKVILLKKEPPKEKPETLIKKRKARSLLPLSTSLDHRSKEELHQDCLVLATAKHSRELNEDVSADVEERFHLGLFTDRATLYRMIDIEGKGHLENGHPELFHQLMLWKGDLKGVLQTAAERGELTDNLVAMAPAAGYHVWLWAVEAFAKQLCFQDQYVKAASHLLSIHKVYEAVELLKSNHFYREAIAIAKARLRPEDPVLKDLYLSWGTVLERDGHYAVAAKCYLGATCAYDAAKVLAKKGDAASLRTAAELAAIVGEDELSASLALRCAQELLLANNWVGAQEALQLHESLQGQRLVFCLLELLSRHLEEKQLSEGKSSSSYHTWNTGTEGPFVERVTAVWKSIFSLDTPEQYQEAFQKLQNIKYPSATNNTPAKQLLLHICHDLTLAVLSQQMASWDEAVQALLRAVVRSYDSGSFTIMQEVYSAFLPDGCDHLRDKLGDHQSPATPAFKSLEAFFLYGRLYE
chain 2: B1 chain 2

The variants in the first assay derive from B1. Nature of the assay: pull-down; HEK293 cell lysates; western blot with anti-FLAG and anti-Xpress; n = 3; read off a plot.
Consider chain 1 A107E, for which the response was ~0.38 relative intensity (PD/In).

Variants of B2 are the subject of a further assay. Nature of the assay: pull-down; HEK293 cell lysates; western blot with anti-FLAG and anti-Xpress; read off a plot. A general note: A western blot detects proteins with antibodies after separation by electrophoresis.
As to chain 1 A107E, the response was ~0.33 relative intensity (PD/In).

Variants of B3 are the subject of the next assay. Description: pull-down; HEK293 cell lysates; western blot with anti-FLAG and anti-Xpress; n = 5; read off a plot.
As for chain 1 A951E, the response is ~0.29 relative intensity (PD/In).
